This data set has as its system MS2 coat protein. The experiment in a line: apparent KD of MS2 coat protein; designed switch direction (-1 OFF switch, 1 ON switch): -1; higher = weaker reporter binding. The gist of the method: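 Designed RNA switches with common flanks were made on Illumina chips by stalled E. coli RNA polymerase. Titration with SNAP-549-labelled MS2 coat protein doubled from 0.7 or 1.5 nM up to 3 µM. Apparent KD is each design's median over clusters after curve-fitting normalised fluorescence.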

[1] abbreviates: Eterna round: R95, input ligand: FMN 200 uM.
[2] abbreviates: Eterna round: R95, input ligand: microRNA oligo, concentration not stated.
The mark [3] stands for this setting: Eterna round: R95, input ligand: none.

For the sequence “GAUGGACAUGAGGAUCACCCAUGUAAGGAUAUUGUUUGUGGCUAGUUUUGGUUACGGGCGAGAAGGUACUCGUC [-19.7, -16.7 kcal, A 23%] (Eterna round: R97, puzzle: Exclusion 1)”, the “apparent KD of MS2 coat protein” value was determined as 39.7 nM (input ligand: FMN 200 uM) and 47.7 nM (input ligand: none).
In the case of “GAUGUGGGUUUUCAGAGUAACAUGAGGAUCACCCAUGUAGAAGUUGGAGGGAUCAAGCUUUUUGGUCGUCAUAUGUG [JR_SV3TOV1_Sub051] (Eterna round: R96, puzzle: Sensor v3, turn-off variant 1)”, the “apparent KD of MS2 coat protein” value (input ligand: FMN 200 uM) was determined as 603 nM; the “apparent KD of MS2 coat protein” value (input ligand: microRNA oligo, concentration not stated) was 358 nM; the “apparent KD of MS2 coat protein” value (input ligand: none) was 588 nM.
For the sequence “GAUGUGGGUUUUCAGAGUAACAUGAGGAUCACCCAUGUAGAAGUUGGAGGGAUCAAGCUUUUUGGUCGUCAUAUGUG [JR_SV3TOV1_Sub051] (puzzle: Sensor v3, turn-off variant 1)”, the “apparent KD of MS2 coat protein” value by setting is: under setting [1], 442 nM; under setting [2], 511 nM; under setting [3], 509 nM.
Turning to “GAUUAACAAGCGAGAUCCCACAUGAGGAUCACCCAUGUGCUCGUCUUAUAAGGUACUGUGACGAAAGUCACGGUACC [Mat - Sensor, turn-off var - Eli Mod - D5] (Eterna round: R97, puzzle: Sensor, turn-off variant 1)”, the “apparent KD of MS2 coat protein” value is, setting by setting: (input ligand: FMN 200 uM) 13.5 nM; (input ligand: none) 15.2 nM.
For “GAUUAACAUGAGGAUCACCCAUGUGAGGAUAUGGACUUGCCCACUUAACCAUUAGAGUCUAGAAGGCGCAUCUG [1986#25] (Eterna round: R97, puzzle: Exclusion 1)” the same measures were 32.9 nM and 29.8 nM.
For the sequence “GAUUAUGCAGGCUUUAGGGACAUGAGGAUCACCCAUGUUCGUCUUAUUGAUCUAGGUACGCUGACGUACCUAGAUCU [JL-sv1-2.34 Brourd mod] (puzzle: Sensor v3, turn-off variant 1)”, the “apparent KD of MS2 coat protein” value came to 19.3 nM under setting [1], 42.5 nM under setting [2] and 20.4 nM under setting [3].
For “GAUUAUGCGAGCUUUAGGGACAUGAGGAUCACCCAUGUUCGUCUUAUUAGUCUAGGUACGCUAACAUACCUAAAUCU [JMF 40] (puzzle: Sensor v3, turn-off variant 1)” the same measures were 20.2 nM, 35.9 nM and 22.8 nM.
For “GAUUAUGCGAGCUUUAGGGACAUGAGGAUCACCCAUGUUCGUCUUAUUAGUCUAGGUGCACUGACAUACCUAAAUCU [JMF 90] (puzzle: Sensor v3, turn-off variant 1)” the same measures were 19.1 nM, 26.1 nM and 18.3 nM.
For “GAUUAUGCGAGCUUUAGGGACAUGAGGAUCACCCAUGUUCGUCUUAUUGAUCUAGGUGCACUAACAUACCUAAAUCU [JMF 34] (puzzle: Sensor v3, turn-off variant 1)” the same measures were 24 nM, 41.2 nM and 27.7 nM.
Turning to “GAUUAUGCGAGCUUUAGGGACAUGAGGAUCACCCAUGUUCGUCUUAUUGGUCUAAGUGCACUGACAUACCUAAAUCU [JMF 84] (puzzle: Sensor v3, turn-off variant 1)”, the “apparent KD of MS2 coat protein” value amounted to 20.2 nM under setting [1], 31.5 nM under setting [2] and 19.6 nM under setting [3].
For “GAUUAUGCGAGCUUUAGGGACAUGAGGAUCACCCAUGUUCGUCUUAUUGGUCUGAAUGCACUAACAUACCUAAAUCU [JMF 24] (puzzle: Sensor v3, turn-off variant 1)” the same measures were 26.2 nM, 37 nM and 24.8 nM.
On to “GAUUAUGCGAGCUUUAGGGACAUGAGGAUCACCCAUGUUCGUCUUAUUGGUCUGAGUACACUAACAUACCUAAAUCU [JMF 15] (puzzle: Sensor v3, turn-off variant 1)”, for which the “apparent KD of MS2 coat protein” value by setting is: under setting [1], 18.3 nM; under setting [2], 26.4 nM; under setting [3], 20.3 nM.

These data come from the supplement of paper PMC9170038.
